Assay results as given in US20240368285A1 (HEFEI TG IMMUNOPHARMA, published 2024).

Experiments:
MICA002α3-Fc = target: T1, MICA002α3-Fc (human); assay: ELISA on coated MICA*002 α3-Fc (1 µg/ml), HRP anti-human Fab secondary, OD450
T1 construct: Produced in the Applicant's laboratory; also called MICA*002-Fc; domain α3 of MICA-002 Fc fusion protein
Experimental: After the antibodies were added, signal intensity was used for judging the binding characteristics of the antibodies and MICA and MICB.
The fusion proteins (produced in the Applicant's laboratory; an amino acid sequence of MICA002α3-Fc is as set forth in SEQ ID NO: 22; an amino acid sequence of MICA005α3-Fc is as set forth in SEQ ID NO: 24; an amino acid sequence of MICA008α3-Fc is as set forth in SEQ ID NO: 25; an amino acid sequence of MICA004α3-Fc is as set forth in SEQ ID NO: 23; an amino acid sequence of MICB001α3-Fc is as set forth in SEQ ID NO: 26; and an amino acid sequence of MICB005α3-Fc is as set forth in SEQ ID NO: 27) were diluted to a concentration of 1 μg/ml with PBS and then added into a 96-well plate in a volume of 100 μl/well. The plate was placed at 4° C. overnight. The PBS in the 96-well plate was removed by sucking. After the plate was washed with PBST (that is, PBS having a pH value of 7.2 included 0.1 volume % of Tween 20) for 6 times, PBS containing 10% of BSA was added in a volume of 200 μl/well. The plate was incubated at 37° C. for 2 hours for blocking. The blocking solution was removed. […]

MICB005α3-Fc = target: T2, MICB005α3-Fc; assay: ELISA on coated MICB*005 α3-Fc (1 µg/ml), HRP anti-human Fab secondary, OD450
T2 construct: also called MICB*005-Fc; domain α3 of MICB-005 Fc fusion protein

[1] = target: T3, MICA on human tumor cells (A-375, A549, HCT-15, MDA-MB-231) (human, UniProt Q29983 24-383); assay: flow cytometry on A-375 cells, Alexa-647 goat anti-human secondary, average fluorescence intensity
T3 construct: whole, on cells
T3 sequence (looked up): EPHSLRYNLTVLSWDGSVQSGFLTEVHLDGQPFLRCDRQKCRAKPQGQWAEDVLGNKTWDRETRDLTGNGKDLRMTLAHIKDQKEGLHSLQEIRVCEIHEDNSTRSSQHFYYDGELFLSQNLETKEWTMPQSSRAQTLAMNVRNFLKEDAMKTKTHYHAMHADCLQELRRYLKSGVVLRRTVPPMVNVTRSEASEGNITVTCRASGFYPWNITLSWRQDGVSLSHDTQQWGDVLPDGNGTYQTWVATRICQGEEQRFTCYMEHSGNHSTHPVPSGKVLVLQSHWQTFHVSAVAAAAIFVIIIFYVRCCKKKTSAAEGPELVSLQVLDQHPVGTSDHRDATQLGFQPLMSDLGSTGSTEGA
Experimental: (1) Tumor cells were diluted to a density of 2×10⁶/mL with PBS and then added into a 1.5 ml EP tube in a volume of 100 l/tube. 10 l/tube of goat serum was added into the EP tube; and blocking was conducted at 4° C. for 30 min. Antibody h5A1 (having a heavy chain sequence as set forth in SEQ ID NO: 11 and a light chain sequence as set forth in SEQ ID NO: 12), antibody h5A1002 (having a heavy chain sequence as set forth in SEQ ID NO: 13 and a light chain sequence as set forth in SEQ ID NO: 14), and control IgG1 (purchased from Biointron) were gradient-diluted (at a highest working concentration of 50 μg/ml, 10 gradients, diluted by 3 times for each gradient) and added. The tube was incubated at 4° C. for 30 min. 1 mL of PBS was added into the EP tube, and centrifugation was conducted 4° C. at a rate of 3,500 rpm for 5 min. The supernatant was removed. The EP tube was washed once with the PBS. The supernatant was removed after centrifugation. The cells were resuspended with PBS in a volume of 100 l/tube. An Alexa-647 labeled goat anti-human secondary antibody (purchased from Jackson lab) was added into the tube in a volume of 1 l/tube; and the plate was incubated in the dark at 4° C. for 30 min. The tube was washed twice with PBS, and the supernatant was removed after centrifugation. […]

T2 sequence (chain, as listed by the source limits assumed): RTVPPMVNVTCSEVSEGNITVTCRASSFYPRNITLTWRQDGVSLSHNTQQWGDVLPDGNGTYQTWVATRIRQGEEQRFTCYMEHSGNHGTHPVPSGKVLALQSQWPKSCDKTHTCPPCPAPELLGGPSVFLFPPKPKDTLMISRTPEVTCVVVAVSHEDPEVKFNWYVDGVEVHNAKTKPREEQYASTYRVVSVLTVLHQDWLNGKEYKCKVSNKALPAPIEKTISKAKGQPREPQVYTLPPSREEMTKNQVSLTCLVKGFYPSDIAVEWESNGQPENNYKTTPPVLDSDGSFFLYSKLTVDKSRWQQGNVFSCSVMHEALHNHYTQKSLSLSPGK
T1 sequence (chain, as listed by the source limits assumed): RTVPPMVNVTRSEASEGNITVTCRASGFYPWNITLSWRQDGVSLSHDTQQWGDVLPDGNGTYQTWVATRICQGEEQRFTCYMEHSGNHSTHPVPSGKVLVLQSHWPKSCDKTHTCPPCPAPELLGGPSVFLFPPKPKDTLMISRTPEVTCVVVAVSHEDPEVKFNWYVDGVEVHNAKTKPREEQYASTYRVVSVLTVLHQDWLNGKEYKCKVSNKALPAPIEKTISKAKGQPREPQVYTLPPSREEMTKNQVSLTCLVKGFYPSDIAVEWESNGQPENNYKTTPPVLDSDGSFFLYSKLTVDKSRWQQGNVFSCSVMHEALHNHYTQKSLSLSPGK

B1: affinity maturation antibody h5A1002 (antibody, V domains shown)
VH: QVQLQESGPGLVKPSETLSLTCTVSGFSLTTYGGHWIRQPPGKGLEWIGMIWTDGWTDYNAAFISRVTISVDTSKNQFSLKLSSVTAADTAVYYCARKGHGYYYAMDYWGQGTLVTVSS
VL: EIVLTQSPGTLSLSPGERATLSCTASSSVSSSYLHWYQQKPGQAPRLLIYSTSNLISGIPDRFSGSGSGTDFTLTISRLEPEDFAVYYCHQYHRSPFTFGQGTKLEIKR
notes: Human IgG1, kappa; also called h5A1002-hIgG1
EC50 (read off the curve) (MICA002α3-Fc): ~0.06 µg/mL
EC50 (read off the curve) (MICB005α3-Fc): ~0.04 µg/mL
EC50 (read off the curve) [1]: ~2 µg/mL
